US20240270821A1, “GIP/GLP1/GCG TRI-RECEPTOR AGONISTS AND USES THEREOF” (priority 2023, published 2024)
Numbering of substitutions follows the chain as printed.

T1: human GIP receptor (human) (UniProt P48546)
T1 sequence (looked up): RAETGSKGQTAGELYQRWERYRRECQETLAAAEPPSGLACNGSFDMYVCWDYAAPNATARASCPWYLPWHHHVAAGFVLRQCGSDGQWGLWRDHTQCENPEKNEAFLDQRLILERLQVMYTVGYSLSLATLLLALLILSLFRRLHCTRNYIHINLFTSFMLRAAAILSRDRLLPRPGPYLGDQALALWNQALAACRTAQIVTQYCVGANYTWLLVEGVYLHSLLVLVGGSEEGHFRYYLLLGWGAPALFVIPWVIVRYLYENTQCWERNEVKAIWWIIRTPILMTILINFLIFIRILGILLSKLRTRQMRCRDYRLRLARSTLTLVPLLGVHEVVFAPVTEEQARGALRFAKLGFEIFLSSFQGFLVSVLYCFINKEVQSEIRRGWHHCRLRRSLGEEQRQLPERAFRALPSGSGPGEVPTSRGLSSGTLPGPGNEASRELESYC

B1: Example 632 (peptide)
chain: YXQGTXTSDXSIXLDKKAQXAFIEYLSEGGPSSGEPPPSGSEE
modifications: Aib, αMeF(2F), 4Pal, αMeL, acylated K, C-terminal amide; synthetic construct; SITE 2: note = 2-Aminoisobutyric Acid; SITE 6: note = alpha-methyl-2-fluoro-L-phenylalanine; SITE 10: note = 3-(4-Pyridyl)-L-alanine; SITE 13: note = alpha-methyl-leucine; SITE 17: note = Lysine is chemically modified through conjugation of the epsilon-amino group of the Lysine
B2: Example 634 (peptide)
chain: B1 chain with S27Q
modifications: (γGlu)2-C18 diacid on Lys; non-natural residues; amide; synthetic construct; SITE 2: note = 2-Aminoisobutyric Acid; SITE 6: note = alpha-methyl-2-fluoro-L-phenylalanine; SITE 10: note = 3-(4-Pyridyl)-L-alanine; SITE 13: note = alpha-methyl-leucine; SITE 17: note = Lysine is chemically modified through conjugation of the epsilon-amino group of the Lysine
B3: Example 636 (peptide)
chain: B1 chain with A21X, S27A
modifications: non-natural residues; C18 diacid-(γ-Glu)2 acyl on Lys; C-terminal amide; synthetic construct; SITE 2: note = 2-Aminoisobutyric Acid; SITE 6: note = alpha-methyl-2-fluoro-L-phenylalanine; SITE 10: note = 3-(4-Pyridyl)-L-alanine; SITE 13: note = alpha-methyl-leucine; SITE 17: note = Lysine is chemically modified through conjugation of the epsilon-amino group of the Lysine
B4: Example 653 (peptide)
chain: B1 chain with A21X, S27Q, S39E
modifications: synthetic construct; SITE 2: note = 2-Aminoisobutyric Acid; SITE 6: note = alpha-methyl-2-fluoro-L-phenylalanine; SITE 10: note = 3-(4-Pyridyl)-L-alanine; SITE 13: note = alpha-methyl-leucine; SITE 17: note = Lysine is chemically modified through conjugation of the epsilon-amino group of the Lysine
B5: Example 635 (peptide)
chain: B1 chain with A21X, S27E
modifications: non-natural residues; C18 diacid-(γ-Glu)2 acyl on Lys; C-terminal amide; synthetic construct; SITE 2: note = 2-Aminoisobutyric Acid; SITE 6: note = alpha-methyl-2-fluoro-L-phenylalanine; SITE 10: note = 3-(4-Pyridyl)-L-alanine; SITE 13: note = alpha-methyl-leucine; SITE 17: note = Lysine is chemically modified through conjugation of the epsilon-amino group of the Lysine
B6: Example 663 (peptide)
chain: B1 chain with X13L, S27X, E35A, S41T, E42G
modifications: synthetic construct; SITE 2: note = 2-Aminoisobutyric Acid; SITE 6: note = alpha-methyl-2-fluoro-L-phenylalanine; SITE 10: note = 3-(4-Pyridyl)-L-alanine; SITE 17: note = Lysine is chemically modified through conjugation of the epsilon-amino group of the Lysine side chain with (2-[2-(2-Amino-ethoxy))
B7: Example 652 (peptide)
chain: B1 chain with A21X, S27T, S39E
modifications: synthetic construct; SITE 2: note = 2-Aminoisobutyric Acid; SITE 6: note = alpha-methyl-2-fluoro-L-phenylalanine; SITE 10: note = 3-(4-Pyridyl)-L-alanine; SITE 13: note = alpha-methyl-leucine; SITE 17: note = Lysine is chemically modified through conjugation of the epsilon-amino group of the Lysine
B8: Example 666 (peptide)
chain: B1 chain with X13L, Y25X, S27E, E35A, E42G
modifications: synthetic construct; SITE 2: note = 2-Aminoisobutyric Acid; SITE 6: note = alpha-methyl-2-fluoro-L-phenylalanine; SITE 10: note = 3-(4-Pyridyl)-L-alanine; SITE 17: note = Lysine is chemically modified through conjugation of the epsilon-amino group of the Lysine side chain with (gamma-Glu)2-CO-(CH2)1
B9: Example 661 (peptide)
chain: B1 chain with X13L, S27X, E35A, S41T, E42G
modifications: synthetic construct; SITE 2: note = 2-Aminoisobutyric Acid; SITE 6: note = alpha-methyl-2-fluoro-L-phenylalanine; SITE 10: note = 3-(4-Pyridyl)-L-alanine; SITE 17: note = Lysine is chemically modified through conjugation of the epsilon-amino group of the Lysine side chain with (gamma-Glu)2-CO-(CH2)1
B10: Example 638 (peptide)
chain: B1 chain with A21X, S27T
modifications: Aib, αMeF(2F), 4Pal, αMeL, Orn; γGlu2-C18 diacid Lys; amide; synthetic construct; SITE 2: note = 2-Aminoisobutyric Acid; SITE 6: note = alpha-methyl-2-fluoro-L-phenylalanine; SITE 10: note = 3-(4-Pyridyl)-L-alanine; SITE 13: note = alpha-methyl-leucine; SITE 17: note = Lysine is chemically modified through conjugation of the epsilon-amino group of the Lysine
B11: Example 633 (peptide)
chain: B1 chain with S27T
modifications: non-natural residues, C18 diacid acylation, C-terminal amide; synthetic construct; SITE 2: note = 2-Aminoisobutyric Acid; SITE 6: note = alpha-methyl-2-fluoro-L-phenylalanine; SITE 10: note = 3-(4-Pyridyl)-L-alanine; SITE 13: note = alpha-methyl-leucine; SITE 17: note = Lysine is chemically modified through conjugation of the epsilon-amino group of the Lysine
B12: Example 650 (peptide)
chain: B1 chain with A21X, S27A, S39E
modifications: synthetic construct; SITE 2: note = 2-Aminoisobutyric Acid; SITE 6: note = alpha-methyl-2-fluoro-L-phenylalanine; SITE 10: note = 3-(4-Pyridyl)-L-alanine; SITE 13: note = alpha-methyl-leucine; SITE 17: note = Lysine is chemically modified through conjugation of the epsilon-amino group of the Lysine
B13: Example 651 (peptide)
chain: B1 chain with A21X, S39E
modifications: synthetic construct; SITE 2: note = 2-Aminoisobutyric Acid; SITE 6: note = alpha-methyl-2-fluoro-L-phenylalanine; SITE 10: note = 3-(4-Pyridyl)-L-alanine; SITE 13: note = alpha-methyl-leucine; SITE 17: note = Lysine is chemically modified through conjugation of the epsilon-amino group of the Lysine
B14: Example 662 (peptide)
chain: B1 chain with X13L, S27E, E35A, S41T, E42G
modifications: synthetic construct; SITE 2: note = 2-Aminoisobutyric Acid; SITE 6: note = alpha-methyl-2-fluoro-L-phenylalanine; SITE 10: note = 3-(4-Pyridyl)-L-alanine; SITE 17: note = Lysine is chemically modified through conjugation of the epsilon-amino group of the Lysine side chain with (2-[2-(2-Amino-ethoxy))
B15: Example 639 (peptide)
chain: B1 chain with A21X, S27Q
modifications: non-natural residues; K acylated (γGlu)2-C18 diacid; C-amide; synthetic construct; SITE 2: note = 2-Aminoisobutyric Acid; SITE 6: note = alpha-methyl-2-fluoro-L-phenylalanine; SITE 10: note = 3-(4-Pyridyl)-L-alanine; SITE 13: note = alpha-methyl-leucine; SITE 17: note = Lysine is chemically modified through conjugation of the epsilon-amino group of the Lysine
B16: Example 637 (peptide)
chain: B1 chain with A21X
modifications: Aib, αMeF(2F), 4Pal, Orn; acylated lysine; amide; synthetic construct; SITE 2: note = 2-Aminoisobutyric Acid; SITE 6: note = alpha-methyl-2-fluoro-L-phenylalanine; SITE 10: note = 3-(4-Pyridyl)-L-alanine; SITE 13: note = alpha-methyl-leucine; SITE 17: note = Lysine is chemically modified through conjugation of the epsilon-amino group of the Lysine

target: human glucagon receptor (human) (UniProt P47871); experiment: cell-based or functional assay
Sequence (P47871 26-477): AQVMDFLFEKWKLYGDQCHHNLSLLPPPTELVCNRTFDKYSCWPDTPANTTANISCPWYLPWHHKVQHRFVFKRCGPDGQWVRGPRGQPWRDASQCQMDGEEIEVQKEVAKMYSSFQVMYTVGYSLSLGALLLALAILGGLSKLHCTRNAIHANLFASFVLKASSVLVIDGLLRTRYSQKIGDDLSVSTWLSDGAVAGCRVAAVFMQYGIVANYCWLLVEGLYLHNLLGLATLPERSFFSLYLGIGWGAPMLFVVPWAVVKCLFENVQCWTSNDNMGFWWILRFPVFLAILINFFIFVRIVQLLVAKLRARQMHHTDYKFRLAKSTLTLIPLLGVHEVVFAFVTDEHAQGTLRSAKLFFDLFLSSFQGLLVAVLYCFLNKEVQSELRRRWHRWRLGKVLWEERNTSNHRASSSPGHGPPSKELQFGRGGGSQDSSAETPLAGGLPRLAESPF

Row | Binder | Relative cAMP EC50 | cAMP Rel EC50 (in the presence of 1% HSA) | cAMP Rel EC50 (1% HSA)
1 | B1 | 13.5 nM | 1600 nM | –
2 | B2 | 6.49 nM | 979 nM | –
3 | B3 | 9.28 nM | 935 nM | –
4 | B4 | – | – | 542 nM
5 | B5 | 7.09 nM | 753 nM | –
6 | B6 | – | – | 226 nM
7 | B7 | – | – | 764 nM
8 | B8 | – | – | 224 nM
9 | B9 | – | – | 160 nM
10 | B10 | 14 nM | 1090 nM | –
11 | B11 | 10.2 nM | 1500 nM | –
12 | B12 | – | – | 574 nM
13 | B13 | – | – | 639 nM
14 | B14 | – | – | 561 nM
15 | B15 | 8 nM | 750 nM | –
16 | B16 | 11.7 nM | 968 nM | –

target: T1, human GIP receptor (human); experiment: cell-based or functional assay

Row | Binder | Relative cAMP EC50 | cAMP Rel EC50 (in the presence of 1% HSA) | cAMP Rel EC50 (1% HSA)
17 | B1 | 0.068 nM | 5.48 nM | –
18 | B2 | 0.0195 nM | 1.48 nM | –
19 | B3 | 0.054 nM | 4.3 nM | –
20 | B4 | – | – | 1.38 nM
21 | B5 | 0.0405 nM | 2.7 nM | –
22 | B6 | – | – | 10.2 nM
23 | B7 | – | – | 1.92 nM
24 | B8 | – | – | 1.39 nM
25 | B9 | – | – | 4.62 nM
26 | B10 | 0.0354 nM | 2.39 nM | –
27 | B11 | 0.0186 nM | 1.63 nM | –
28 | B12 | – | – | 3.1 nM
29 | B13 | – | – | 6.3 nM
30 | B14 | – | – | 4.69 nM
31 | B15 | 0.0231 nM | 2.04 nM | –
32 | B16 | 0.108 nM | 7.23 nM | –

target: hGLP-1R (Homo sapiens, UniProt P43220); experiment: cell-based or functional assay
Sequence (P43220 24-463): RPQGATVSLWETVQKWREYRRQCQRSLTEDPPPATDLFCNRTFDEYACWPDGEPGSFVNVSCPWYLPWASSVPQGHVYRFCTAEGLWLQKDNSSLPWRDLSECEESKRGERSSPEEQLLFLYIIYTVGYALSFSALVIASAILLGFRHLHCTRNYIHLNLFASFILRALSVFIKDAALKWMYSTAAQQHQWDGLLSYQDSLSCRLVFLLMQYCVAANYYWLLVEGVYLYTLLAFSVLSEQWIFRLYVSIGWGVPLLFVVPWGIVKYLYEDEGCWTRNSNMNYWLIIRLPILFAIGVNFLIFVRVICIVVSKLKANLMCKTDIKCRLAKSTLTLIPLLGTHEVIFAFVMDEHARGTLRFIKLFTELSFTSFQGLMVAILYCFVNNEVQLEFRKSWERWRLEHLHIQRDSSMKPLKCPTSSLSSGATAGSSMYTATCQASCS

Row | Binder | Relative cAMP EC50 | cAMP Rel EC50 (in the presence of 1% HSA) | cAMP Rel EC50 (1% HSA)
33 | B1 | 0.951 nM | 88.2 nM | –
34 | B2 | 0.403 nM | 34.9 nM | –
35 | B3 | 0.504 nM | 36.6 nM | –
36 | B4 | – | – | 25 nM
37 | B5 | 0.625 nM | 53.9 nM | –
38 | B6 | – | – | 79 nM
39 | B7 | – | – | 26.8 nM
40 | B8 | – | – | 32.3 nM
41 | B9 | – | – | 50.9 nM
42 | B10 | 0.4 nM | 36 nM | –
43 | B11 | 0.421 nM | 41.2 nM | –
44 | B12 | – | – | 31.4 nM
45 | B13 | – | – | 53.9 nM
46 | B14 | – | – | 84.5 nM
47 | B15 | 0.374 nM | 27.9 nM | –
48 | B16 | 1.08 nM | 76.2 nM | –
